Assay results taken from patent US20180353627A1, “RADIOLABELED DISINTEGRINS AS BRACHYTHERAPY AGENTS” (UNIVERSITY OF SOUTHERN CALIFORNIA, priority 2015, published 2018).
“Also recorded” adds a separate entry of the source.

Key:
GBM = assay: Survival study, intratumoral delivery via Alzet pump in GBM-bearing animals; format: in vivo
[1] = Hemorrhage after brain injection in healthy, tumor-free rats; format: in vivo; settings: no difference to PBS-injected brains
Text: (§1) All previous work was done with CN, the precursor of VCN. Applicants previously determined whether CN induces hemorrhage in healthy, tumor-free rats.

C6 rat GBM cells = assay: Gamma camera biodistribution after intracranial injection, C6 rat GBM; format: in vivo, rats; settings: given intracranially as ^131I-CN
Method: A Gamma camera was used to determine biodistribution of ^131I-CN in rats after intracranial injection of C6 rat GBM cells, and tumors allowed to grow for 7 days. Two tumor-free rats were also administered ^131I-CN intracranially. Whole-body distribution of radioactivity was imaged at 0 and 24 hours after injection of ^131I-CN.
CN is localized to the brain in all animals at 0 hours. […] This retention was attributable to CN's specific binding to integrin αvβ3, which has been shown previously by us and others to be overexpressed in glioma cells, but not in normal brain tissue. Thus, CN delivered intratumorally binds to the expected integrins in GBM in vivo and accumulates specifically at the site of the tumor. Based on structural and functional similarities between VCN and CN, we anticipate identical findings with VCN for GBM localization.

[2] = Immune response after intracranial injection; format: in vivo, rodents
Text: as §1

U87 GBM cells = assay: Intracranial U87 GBM tumor model, Alzet pump delivery to the brain; format: in vivo; settings: 40 μg daily over 2 weeks via Alzet pump, U87 GBM in nude mice
Text: Finally, in an intracranial tumor model, U87 GBM cells were stereotactically implanted into nude mice. […] After 2 weeks the mice were euthanized and their brains removed. The average tumor size of animals treated with PBS was several times larger than animals treated with VCN.

α5β1 = α5β1 (Homo sapiens, UniProt P05556+P08648); assay: Fluorescence polarization binding of FITC-labeled disintegrins to soluble integrin α5β1; settings: VCN with incorporated echistatin sequence
Text: FIG. 3 depicts amino acid sequences of this disclosure. Mass spectrometry and crystallographic data confirmed that CN (SEQ ID. NO. 1) is a homodimer with the 2 chains oriented in an antiparallel fashion and held together by 2 inter-chain disulfide bonds. […] Recombinant CN is SEQ ID NO. 2. VCN is SEQ ID NO. 3. Echistatin is SEQ ID NO. 4.
Further, ^131I-VCN retained essentially 100% radioiodine during dialysis against phosphate buffered saline, pH 7.4, for 15 days. […] Binding kinetics were calculated from the fluorescence anisotropy data generated by steady state binding of FITC-labeled disintegrins to either purified (αvβ3, αvβ5) or recombinant (α5β1) functional human integrins. The dissociation constants for interactions of either CN or VCN with soluble integrins were determined by Scatchard analysis using a non-linear curve fit.

platelet aggregation = assay: Inhibition of platelet aggregation (bioactivity after radioiodination); format: cell-based; settings: radioiodinated VCN
[3] = Toxicology study, single i.v. escalating doses in rats; format: in vivo; settings: single i.v. 3 mg/kg to 75 mg/kg, 14 days
Method: Rats were evaluated for signs of physical toxicity or stress and sacrificed after 14 days.

Sequence of α5β1 (P08648 42-894 limits assumed): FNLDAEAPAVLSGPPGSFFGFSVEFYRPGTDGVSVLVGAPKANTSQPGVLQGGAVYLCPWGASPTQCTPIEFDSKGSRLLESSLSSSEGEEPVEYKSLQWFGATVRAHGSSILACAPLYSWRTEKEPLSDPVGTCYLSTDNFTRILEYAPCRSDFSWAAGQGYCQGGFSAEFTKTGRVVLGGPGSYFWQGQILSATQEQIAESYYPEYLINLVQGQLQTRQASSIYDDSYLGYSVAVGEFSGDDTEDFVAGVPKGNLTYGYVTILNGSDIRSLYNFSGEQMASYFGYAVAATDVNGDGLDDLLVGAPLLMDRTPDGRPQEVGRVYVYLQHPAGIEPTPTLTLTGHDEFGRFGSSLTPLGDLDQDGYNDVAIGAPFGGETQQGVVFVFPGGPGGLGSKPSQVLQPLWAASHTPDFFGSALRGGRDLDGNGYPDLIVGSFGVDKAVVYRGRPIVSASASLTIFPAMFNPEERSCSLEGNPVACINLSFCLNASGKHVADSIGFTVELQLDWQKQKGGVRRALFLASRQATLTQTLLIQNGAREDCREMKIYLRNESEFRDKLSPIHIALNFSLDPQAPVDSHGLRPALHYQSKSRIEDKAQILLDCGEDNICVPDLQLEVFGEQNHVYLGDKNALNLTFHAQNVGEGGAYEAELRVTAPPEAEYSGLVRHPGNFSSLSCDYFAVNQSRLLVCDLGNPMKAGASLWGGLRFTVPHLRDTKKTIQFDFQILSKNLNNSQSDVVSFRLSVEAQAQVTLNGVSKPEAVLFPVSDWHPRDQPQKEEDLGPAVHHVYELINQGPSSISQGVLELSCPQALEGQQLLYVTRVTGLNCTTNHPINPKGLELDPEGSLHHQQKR
Sequence of α5β1 (P08648 895-995 partner limits assumed): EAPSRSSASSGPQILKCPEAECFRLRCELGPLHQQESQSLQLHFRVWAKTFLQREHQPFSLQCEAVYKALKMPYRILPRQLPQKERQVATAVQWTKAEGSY
Sequence of α5β1 (P05556 21-728 limits assumed): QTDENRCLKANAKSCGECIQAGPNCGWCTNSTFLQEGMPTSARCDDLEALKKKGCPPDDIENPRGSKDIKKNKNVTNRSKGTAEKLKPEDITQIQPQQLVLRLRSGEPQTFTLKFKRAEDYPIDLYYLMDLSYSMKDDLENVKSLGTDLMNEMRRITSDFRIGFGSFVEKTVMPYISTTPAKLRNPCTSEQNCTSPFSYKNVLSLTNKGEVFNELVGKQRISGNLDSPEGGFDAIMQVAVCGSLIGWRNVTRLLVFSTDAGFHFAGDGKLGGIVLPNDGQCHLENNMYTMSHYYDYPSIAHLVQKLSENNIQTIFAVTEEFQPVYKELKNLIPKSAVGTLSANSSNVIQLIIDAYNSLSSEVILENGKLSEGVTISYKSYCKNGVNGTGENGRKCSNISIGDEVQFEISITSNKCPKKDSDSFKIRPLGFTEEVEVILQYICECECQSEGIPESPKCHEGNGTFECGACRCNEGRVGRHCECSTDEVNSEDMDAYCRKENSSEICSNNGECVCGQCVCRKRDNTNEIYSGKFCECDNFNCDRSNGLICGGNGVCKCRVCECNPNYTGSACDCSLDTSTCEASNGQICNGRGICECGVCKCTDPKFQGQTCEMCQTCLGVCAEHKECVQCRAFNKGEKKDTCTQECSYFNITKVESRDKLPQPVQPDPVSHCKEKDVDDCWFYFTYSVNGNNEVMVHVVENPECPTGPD

Substance | survival (GBM) | hemorrhage [1] | radioactivity in the brain at 24 hours (C6 rat GBM cells; tumor-bearing (C6) rats) | radioactivity in the brain at 24 hours (C6 rat GBM cells; tumor-free rats) | immune response ([2]; intracranial 50 μg, tumor-bearing (U87 GBM) or tumor-free rodents, 7 days) | immune response ([2]; intracranial 150 μg, after 7, 14 or 21 days) | tumor growth (tumor size versus PBS) (U87 GBM cells) | improvement of binding affinity to integrin a5b1 (α5β1) | retention of bioactivity after radioiodination, assessed by inhibition of platelet aggregation (platelet aggregation) | adverse effects [3] | behavior, gross and microscopic examination [3] | body weight gain [3] | hematological parameters [3]
contortrostatin [CN] | significantly (p<0.008) improved survival | minimal and localized to the injection needle track | the vast majority of radioactivity was still retained | disappeared from the brains of tumor-free rats | no evidence of an immune response | no evidence of an immune response | – | – | – | – | – | – | –
vicrostatin [VCN] | – | – | – | – | – | – | significant (p<0.001) attenuation of tumor growth | approximately 13 fold | full retention of bioactivity; also recorded: full retention of biological activity | no adverse effects observed | no changes in behavior, or in gross or microscopic examination | gained weight indistinguishable from control | no significant differences in hematological parameters
